Source: the supplement of paper PMC10126150
± gives the standard deviation of the averaged measurements.

System: ATP
Test: switch fluorescence ratio, 500 uM ATP over buffer (Cy3 cluster intensity, sum of 5 cycles each) (fold (ratio)); higher = stronger signal-on switching upon ATP binding; sequences stand for … in TCGTCGGCAGCGTCAGATGTGTATAAGAGACAGTTTTTTTTTTTTTTTTTTTTTTTTT…TC
Conditions: aptamer strand: ATP DNA aptamer (quencher-CACCTGGGGGAGTATTGCGGAGGAAGG + anchor), 100 nM annealed; ATP concentration: 500 uM
In short: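 Five buffer/ATP imaging cycles were run on Cy3-labelled switching-strand clusters on a modified Illumina MiSeq flow-cell, with NaOH stripping and re-annealing between cycles. In each cycle, clusters annealed to 100 nM quencher-labelled ATP aptamer were imaged in selection buffer, then after 15 min with 500 uM ATP at 22 °C. Per cluster, the fluorescence ratio is summed target-cycle over summed buffer-cycle Cy3 intensity, averaged per switch-domain sequence. Only clusters within 100-1000 RFU were kept.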
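Note: ATP exposure 15 min at 22 °C before imaging.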

| Sequence | switch fluorescence ratio |
| --- | --- |
| GGCAATATTT | 1.2 ± 0.061 |
| GTTGGTTTTG | 1.008 ± 0.0057 |
| TCTGGGTGGC | 0.996 ± 0.028 |
| TGCATTTTGT | 0.989 ± 0.018 |
| ATGTTTGAAG | 0.9844 ± 0.0042 |
| AGTGCCATTG | 0.9627 ± 0.0067 |
| AGGTGTGTCT | 1.019 ± 0.0093 |
| TGTAATTTCG | 1.03 ± 0.04 |
| TTTACTGGCT | 1.02 ± 0.0011 |
| ACCGTGTGTG | 0.995 ± 0.046 |
| GGAGGGGATC | 0.998 ± 0.022 |
| GGGAACGTCG | 1.011 ± 0.01 |
| AGGGTGAATT | 0.9848 ± 0.0075 |
| CTTGTGTGTT | 0.993 ± 0.057 |
| GTTTTACGGA | 1.003 ± 0.0065 |
| AATCTTGGGT | 0.972 ± 0.012 |
| CTCATATAGA | 0.991 ± 0.045 |
| CCGCCCTATT | 1.4 ± 0.024 |
| TATGCTAAGG | 0.996 ± 0.025 |
| CTATACGGGG | 0.976 ± 0.025 |
| GACGCGGATG | 1.04 ± 0.02 |
| CTAATTCGAG | 0.9919 ± 0.0026 |
| TTTGGTCGC | 0.9851 ± 0.0012 |
| TCACCTTATT | 1.03 ± 0.022 |
| GGAGTAGCAG | 1.02 ± 0.074 |

| Sequence | switch fluorescence ratio |
| --- | --- |
| ACTTGAGGTC | 0.991 ± 0.028 |
| GTTGGGCTTT | 0.98 ± 0.025 |
| TACTGAGTTA | 1 ± 0.015 |
| CGGATGATGA | 1.02 ± 0.089 |
| TGGGGGGCGC | 0.989 ± 0.025 |
| TTGTGCGGGT | 1.02 ± 0.049 |
| GGGGCTTACG | 0.9893 ± 0.0087 |
| ATTATTAAAT | 1.08 ± 0.18 |
| CCGATTTATA | 1.013 ± 0.0052 |
| TTCGTTGTGC | 1.01 ± 0.02 |
| GCGGGGCAAG | 1.06 ± 0.11 |
| GACAGGGGGG | 1.01 ± 0.085 |
| TTTTTGGGTT | 1.02 ± 0.048 |
| TAATTTCTGG | 0.9896 ± 0.0085 |
| AGGGGGATTT | 0.999 ± 0.052 |
| GACGTAGAGC | 1.08 ± 0.026 |
| TTGATAGACG | 1.07 ± 0.042 |
| CCTTAGTTGG | 1.02 ± 0.056 |
| TGCAAAATTT | 0.995 ± 0.018 |
| GATAAAGAAG | 0.9999 ± 0.0071 |
| GGTTGAGGTG | 1.01 ± 0.039 |
| TATGATAGGC | 0.953 ± 0.058 |
| GATTGCGGTC | 1.03 ± 0.016 |
| ATCAAATATG | 1.01 ± 0.008 |
| TAAGGCTTAT | 0.988 ± 0.016 |

| Sequence | switch fluorescence ratio |
| --- | --- |
| GGGACTTGGA | 0.9765 ± 0.009 |
| GGGGGCGGAA | 1 ± 0.027 |
| TGACTTTTTC | 1.03 ± 0.016 |
| GGGCAAAGGT | 1.09 ± 0.16 |
| GAGCAACGGA | 1.02 ± 0.031 |
| GTTATCAGGG | 0.995 ± 0.026 |
| TTTTTCGTGT | 0.975 ± 0.038 |
| AAAATAATGG | 0.998 ± 0.04 |
| GTGTAATTAG | 0.982 ± 0.035 |
| AAGAAGTCCT | 0.983 ± 0.034 |
| AGAAAAAGGG | 1.01 ± 0.037 |
| ATGGGATCTG | 0.999 ± 0.025 |
| TTGTCACAGG | 1.09 ± 0.056 |
| GATTGGTATT | 0.995 ± 0.044 |
| TTTGGGGAGG | 1.02 ± 0.058 |
| CGTCCAGCGT | 1.2 ± 0.067 |
| ATAACGGAGG | 0.9773 ± 0.0088 |
| TTCTATATTG | 0.996 ± 0.023 |
| TTTGCAAGGG | 1.81 ± 1.2 |
| TAAGATTCGG | 0.968 ± 0.015 |
| ACTGTTATTT | 1.0389 ± 0.00024 |
| CTCTGTACAG | 1.01 ± 0.018 |
| ATAACGTACT | 1.84 ± 0.18 |
| TTGTCTTTGG | 1.01 ± 0.041 |
| GGGAGCTGAA | 1.04 ± 0.04 |

| Sequence | switch fluorescence ratio |
| --- | --- |
| ATCTTTGGTG | 1.03 ± 0.022 |
| AAACGGGGGG | 0.99 ± 0.024 |
| GCATTGCGGC | 0.991 ± 0.019 |
| CCGGAAATTT | 1.01 ± 0.019 |
| GGGGTTTTAC | 0.995 ± 0.036 |
| GAAGGGCTGT | 0.993 ± 0.029 |
| GGTGTTGGCT | 1.02 ± 0.059 |
| TCCTTTACTG | 0.9779 ± 0.0072 |
| TTTTTACTGT | 1.01 ± 0.017 |
| CATGGCCTCT | 0.987 ± 0.034 |
| GATTGGTTCC | 1.05 ± 0.036 |
| CGTAGTAACT | 1.11 ± 0.022 |
| GTATTGGGTT | 1 ± 0.056 |
| TGTTAATATT | 0.989 ± 0.018 |
| CGGTGTTGGC | 1.05 ± 0.081 |
| TGTTGTGTGT | 0.985 ± 0.028 |
| AACATTATGT | 1 ± 0.04 |
| TTCGAAGCAC | 2.74 ± 1.7 |
| ATCATCTTCG | 1.02 ± 0.015 |
| TATAGTTTTG | 0.996 ± 0.021 |
| GGCTACAGGG | 0.999 ± 0.011 |
| TCGACTGAGG | 1.03 ± 0.031 |
| AATAGTACTG | 1 ± 0.071 |
| ACAATGAGTG | 1.003 ± 0.0011 |
| ATGGTAGTAT | 0.986 ± 0.016 |

| Sequence | switch fluorescence ratio |
| --- | --- |
| GTTTGTGCAT | 1.025 ± 0.0083 |
| AGCATTAATT | 0.988 ± 0.043 |
| TATACTATGG | 1.01 ± 0.038 |
| TTCAGGGCGC | 1.03 ± 0.053 |
| TTTGTGAGGA | 0.996 ± 0.034 |
| TTGAATGGTC | 0.979 ± 0.081 |
| AAGGTTATGC | 0.987 ± 0.039 |
| ATTGTGTACT | 1 ± 0.031 |
| TCAATCTGGG | 1.006 ± 0.0066 |
| TGCGTATGAA | 0.9796 ± 0.0097 |
| AGAGGGCGGA | 1 ± 0.02 |
| ACGCGGGGGT | 1.07 ± 0.069 |
| TTTTTTTTC | 1.045 ± 0.0071 |
| TTTAGGGTAT | 1.012 ± 0.0069 |
| AAAACCAGAC | 1.53 ± 0.078 |
| TCGAGTTTGG | 1.01 ± 0.022 |
| TATCTTGCAT | 0.97 ± 0.048 |
| AAAATGCGGA | 0.9951 ± 0.003 |
| TTGGGAATTT | 0.975 ± 0.019 |
| AATGGATTTG | 0.995 ± 0.013 |
| GGCGTCAGGA | 1.01 ± 0.027 |
| TTTGCGGTCA | 1.021 ± 0.0091 |
| TGAAAGCCGG | 0.965 ± 0.045 |
| CGTGAGGATT | 1 ± 0.022 |
| CATGGAATCG | 1.02 ± 0.035 |

| Sequence | switch fluorescence ratio |
| --- | --- |
| TTCATGATTG | 0.999 ± 0.011 |
| TTGTTTTGTG | 0.978 ± 0.013 |
| TTTCTATGGA | 1.0135 ± 0.0006 |
| AGTGGAGGAC | 1.02 ± 0.012 |
| TTAATTTCTA | 0.9901 ± 0.0058 |
| ATGTGTATCG | 0.969 ± 0.039 |
| CAGGCTGGGC | 0.9862 ± 0.008 |
| GAAAAACTGT | 1.06 ± 0.021 |
| AGTTTGCGGC | 0.94 ± 0.039 |
| AAGAGAGGGT | 0.998 ± 0.042 |
| TACTTGGTT | 1.01 ± 0.02 |
| CCTCGTTATT | 1.27 ± 0.027 |
| GTCCACAGGT | 1.69 ± 0.056 |
| TTTGAGGCCA | 1.04 ± 0.061 |
| CAGGTATGT | 0.991 ± 0.015 |
| ACAAGGGTTA | 0.999 ± 0.018 |
| GAGGTTATAT | 0.992 ± 0.017 |
| AGGGGGTCTT | 1.01 ± 0.016 |
| TTTTTACGGC | 1.02 ± 0.016 |
| CTTTTAATAG | 1.08 ± 0.057 |
| TCTTAAAATT | 1.012 ± 0.0091 |
| ATGGGTACTG | 0.963 ± 0.022 |
| TGGTTTAGTG | 0.976 ± 0.031 |
| AGGCAAAAAT | 1.008 ± 0.004 |
| TATCAGACAG | 1.011 ± 0.0095 |

| Sequence | switch fluorescence ratio |
| --- | --- |
| TTAACGGTAG | 0.983 ± 0.038 |
| TGTAAGCTAG | 1.017 ± 0.0066 |
| CATTGGGACA | 1.02 ± 0.019 |
| TCTTGTTTTT | 0.977 ± 0.022 |
| TTCCGTCACG | 1.08 ± 0.043 |
| GGGTGGGGGG | 1.01 ± 0.037 |
| TGCTATCATT | 1.08 ± 0.12 |
| GAATCGTTTT | 0.9553 ± 0.0068 |
| CGGGGTTGCA | 0.978 ± 0.022 |
| TTTTGGCGCT | 1.005 ± 0.008 |
| CGGGCGCTGT | 1.06 ± 0.061 |
| GGCGGCCGAT | 0.9707 ± 0.005 |
| GCGATCCTGT | 1.02 ± 0.015 |
| CACCGGTTCT | 1.03 ± 0.011 |
| ATGCTATTGT | 1.03 ± 0.046 |
| GTGGCAGACC | 1.01 ± 0.012 |
| AGACTCACTG | 1.09 ± 0.011 |
| CCGCTGGGCT | 1.83 ± 0.056 |
| TGTTTTAAGG | 1.009 ± 0.0081 |
| CGGGGCAGCG | 1.02 ± 0.042 |
| GAGAATCACG | 0.9961 ± 0.0024 |
| AATACGTATA | 1.1 ± 0.068 |
| AAGTGGAGGC | 1.04 ± 0.0072 |
| ACGTCTTTGG | 1.02 ± 0.043 |
| CTGTCCTTTT | 1.11 ± 0.17 |

| Sequence | switch fluorescence ratio |
| --- | --- |
| ATAATAGTTG | 1.02 ± 0.018 |
| TGCTGGCATA | 1.18 ± 0.29 |
| AATCGTTGAA | 1.01 ± 0.017 |
| ACCAGCTACA | 1.09 ± 0.033 |
| TGACTTTGTG | 1.02 ± 0.044 |
| CGGGTTTGAA | 0.972 ± 0.024 |
| TAGGGGAAAG | 0.99 ± 0.052 |
| CGAGGTGGGT | 1.01 ± 0.049 |
| CAACTGCAGC | 1.26 ± 0.049 |
| TTTCTTCGCT | 1.01 ± 0.046 |
| TATGGTATCT | 0.994 ± 0.024 |
| GGCTGGATGG | 0.961 ± 0.014 |
| TCTTGAATAA | 0.9856 ± 0.0072 |
| GCTTTTTGCT | 1.012 ± 0.0054 |
| CTACATGTAA | 1.03 ± 0.081 |
| TGTAAGAGCG | 0.9934 ± 0.0022 |
| TTCGAGGAGG | 0.981 ± 0.017 |
| GCGACGGGT | 1.02 ± 0.06 |
| TTATCCGAGA | 1.04 ± 0.019 |
| ATCTAAAGTT | 1.023 ± 0.0016 |
| GTAGGGAACC | 0.976 ± 0.025 |
| GTTGGTTAGA | 0.9776 ± 0.005 |
| AGATTCTCGA | 0.998 ± 0.011 |
| ATTCAACGGG | 1.04 ± 0.013 |
| AACTTTTTGG | 0.99 ± 0.013 |
